Experiments:
[1] = target: the molecule itself; assay: self-association; BS3 cross-linking, IIA Western blot
Source text: Chemical crosslinking was used to examine the state of oligomerization of the IIA collagen domain.

[2] = target: the molecule itself; assay: self-association; BS3 cross-linking (0-2 mM), anti-IIA immunoblot
Method: J. 318:505-511 (1996)) (FIG. 8). Each mutant protein was covalently cross-linked and the presence of protein monomers, dimers or trimers was detected by immunoblotting using the anti-IIA antibody. […] The IIA NH₂-propeptide attached to the 35 amino acid stretch of the coiled-coil neck (mIIA-237) was also secreted as a non-covalent trimer. However, lower concentrations of cross-linker (0.1-0.2 mM) were sufficient for detection of mIIA-237 trimers compared to concentrations used to detect trimers of the other truncated mutant proteins (0.5-1 mM), and no dimeric intermediate was identified. Co-operativity exists between the IIA NH₂-propeptide collagen domain and the 14 amino acid sequence of the SP-D coiled-coil neck domain
To determine the minimum sequence that can function as a trimerizing unit, mutant constructs were designed containing termination codons at specific locations within the heptad repeats of the coiled-coil. Using IIA/SP-D cDNA in pGEM-3Z as a substrate, four mutant constructs were synthesized using the QuikChangem Site-Directed Mutagenesis Kit (Stratagene, La Jolla, Calif.). The sequence of the mutant was confirmed by DNA sequencing. […] Proteins were detected by SDS-PAGE and immunolocalization of Western blots using the anti-IIA polyclonal antibody.

B1: IIA NH2-propeptide synthesized without fusion to the neck/CRD domains of SP-D (other, human, UniProt P02458 26-203, looked up)
chain: QDVQEAGSCVQDGQRYNDKDVWKPEPCRICVCDTGTVLCDDIICEDVKDCLSPEIPFGECCPICPTDLATASGQPGPKGQKGEPGDIKDIVGPKGPPGPQGPAGEQGPRGDRGDKGEKGAPGPRGRDGEPGTPGNPGPPGPPGPPGPPGLGGNFAAQMAGGFDEKAGGAQLGVMQGPM
notes: domain: NH2-propeptide (exons 1-8); Transiently transfected CHO cells; secreted as monomers; also called control construct of full-length IIA NH2-propeptide only
binding result [1]: no binding

B2: mIIA-203 (other, human, UniProt P02458 26-203, looked up)
chain: B1 chain
notes: domain: NH2-propeptide (exons 1-8); Truncation mutant of IIA/SP-D, control
binding result [2]: no binding

B3: mIIA-211 (other, human;rat, UniProt P02458 26-203, looked up)
chain: QDVQEAGSCVQDGQRYNDKDVWKPEPCRICVCDTGTVLCDDIICEDVKDCLSPEIPFGECCPICPTDLATASGQPGPKGQKGEPGDIKDIVGPKGPPGPQGPAGEQGPRGDRGDKGEKGAPGPRGRDGEPGTPGNPGPPGPPGPPGPPGLGGNFAAQMAGGFDEKAGGAQLGVMQGPMDSAALRQQ
notes: domain: NH2-propeptide (exons 1-8);domain: first heptad repeat of the coiled-coil neck domain; Truncation mutant of IIA/SP-D; also called IIA NH2-propeptide fused to the first heptad repeat
binding result [2]: no binding

From US20080166798A1 (BARNES JEWISH HOSPITAL, published 2008)
